Patent publication US20160194644A1 (COMMISSARIAT A L ENERGIE ATOMIQUE ET AUX ENERGIES …, published 2016)

Biological target: T1, Flag-RNF185 (wild type, full length human RNF185 with N-terminal Flag tag) (human, UniProt Q96GF1 2-192)
T1 construct: Expressed by transfection in HEK293T cells; co-immunoprecipitation from lysates; For the CFTR co-IP, cells expressing WT RNF185 were treated with MG132 for 5 hours; also called RNF185 WT; Flag-tagged RNF185
T1 sequence: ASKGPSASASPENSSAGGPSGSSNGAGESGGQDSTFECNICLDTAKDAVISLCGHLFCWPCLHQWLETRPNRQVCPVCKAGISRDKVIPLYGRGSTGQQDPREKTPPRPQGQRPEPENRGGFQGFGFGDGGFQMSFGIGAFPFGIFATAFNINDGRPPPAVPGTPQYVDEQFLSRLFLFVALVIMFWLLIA
Test: Flag co-immunoprecipitation from HEK293T cell lysates

B1: Ubc7/UBE2G1 (enzyme, UniProt P62253 1-170, looked up)
chain: MTELQSALLLRRQLAELNKNPVEGFSAGLIDDNDLYRWEVLIIGPPDTLYEGGVFKAHLTFPKDYPLRPPKMKFITEIWHPNVDKNGDVCISILHEPGEDKYGYEKPEERWLPIHTVETIMISVISMLADPNGDSPANVDAAKEWREDRNGEFKRKVARCVRKSQETAFE
notes: the construct is not described
  binding result: no binding
